In patent US20110009283A1:

Legend:
[1] = target: Kv1.3 K+ channel, wild-type, expressed in cells (species not stated) (Homo sapiens (Human)) (UniProt P22001); test: cell-based or functional assay
[2] = target: KcsA-Kv1.3 (KcsA carrying a segment of the Kv1.3 pore loop)
[3] = target: KcsA-Kv1.3 (KcsA carrying a segment of the Kv1.3 pore loop); remark: listed apart in the source
[4] = target: KcsA-Kv1.3 (KcsA carrying a segment of the Kv1.3 pore loop); remark: listed apart in the source
[5] = target: BK channel (species not stated); test: cell-based or functional assay
[6] = target: Homo Kv1.3 (Homo) (UniProt P22001); test: cell-based or functional assay
[7] = target: Kv1.1 K+ channel (species not stated); test: cell-based or functional assay
[8] = target: Kv1.2 K+ channel (species not stated); test: cell-based or functional assay
[9] = target: Homo Kv1.3 (Homo) (UniProt P22001); test: two-electrode voltage clamp, block of currents in Xenopus oocytes, dose-response fit
[10] = target: Rattus Kv1.2 (Rattus) (UniProt P63142); test: two-electrode voltage clamp, kinetics of block in Xenopus oocytes
[11] = target: Rattus Kv1.2 (Rattus) (UniProt P63142); test: two-electrode voltage clamp, block of currents in Xenopus oocytes, dose-response fit
[12] = target: KcsA-Kv1.3 (KcsA carrying a segment of the Kv1.3 pore loop); remark: listed apart in the source
[13] = target: KcsA-Kv1.3 (KcsA carrying a segment of the Kv1.3 pore loop); test: phage library panning on immobilized KcsA-1.3
[14] = target: Kv1.3 K+ channel, wild-type, expressed in cells (species not stated) (Homo sapiens (Human)) (UniProt P22001); test: panning of a 2:2:96 phage mixture on HEK cells expressing Kv1.3
Target sequence in this assay (P22001 whole entry, form in doubt): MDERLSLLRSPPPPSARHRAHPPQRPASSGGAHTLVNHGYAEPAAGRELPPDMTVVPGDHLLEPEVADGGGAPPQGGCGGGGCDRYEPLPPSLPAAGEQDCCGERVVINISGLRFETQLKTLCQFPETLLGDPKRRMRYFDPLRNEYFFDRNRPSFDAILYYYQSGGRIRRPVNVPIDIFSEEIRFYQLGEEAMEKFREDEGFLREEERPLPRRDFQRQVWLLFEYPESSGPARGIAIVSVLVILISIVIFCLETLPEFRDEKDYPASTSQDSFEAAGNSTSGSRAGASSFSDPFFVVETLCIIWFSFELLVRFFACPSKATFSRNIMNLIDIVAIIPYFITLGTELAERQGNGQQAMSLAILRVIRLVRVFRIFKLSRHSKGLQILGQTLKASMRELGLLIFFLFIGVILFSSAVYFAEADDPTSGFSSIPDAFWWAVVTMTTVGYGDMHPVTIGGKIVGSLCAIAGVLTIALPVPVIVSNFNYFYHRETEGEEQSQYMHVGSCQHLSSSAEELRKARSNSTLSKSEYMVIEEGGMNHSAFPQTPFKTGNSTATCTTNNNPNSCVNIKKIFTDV

Sequence of Homo Kv1.3 (Homo) (P22001 whole entry): as the sequence (P22001 whole entry, form in doubt) above
Sequence of Rattus Kv1.2 (Rattus) (P63142 whole entry): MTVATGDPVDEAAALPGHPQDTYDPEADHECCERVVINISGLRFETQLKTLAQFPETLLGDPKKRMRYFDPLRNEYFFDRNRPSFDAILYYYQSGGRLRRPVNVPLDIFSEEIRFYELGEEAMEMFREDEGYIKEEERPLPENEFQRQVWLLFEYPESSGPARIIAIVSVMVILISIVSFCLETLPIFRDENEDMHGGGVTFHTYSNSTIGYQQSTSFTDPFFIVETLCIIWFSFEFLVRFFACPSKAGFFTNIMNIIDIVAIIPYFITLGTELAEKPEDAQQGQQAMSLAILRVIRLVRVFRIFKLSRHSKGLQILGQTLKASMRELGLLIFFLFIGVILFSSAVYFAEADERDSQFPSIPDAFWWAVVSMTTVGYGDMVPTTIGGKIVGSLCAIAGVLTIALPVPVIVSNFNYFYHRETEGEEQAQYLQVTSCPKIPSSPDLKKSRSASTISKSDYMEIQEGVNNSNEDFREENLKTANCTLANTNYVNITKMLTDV

Ce3 (Centruroides elegans toxin Ce3) (peptide)
approximate IC50 (nM) of channel block [1]: 366 nM

Dendroaspis natriuretic peptide (DNP) phage (from UniProt P28374 1-38)
Output (% Ligands) [2]: 0%

Kaliotoxin-1 phage (KTX-phage) (peptide)
Output (% Ligands) [2]: 100% | Fold Enrichment [3]: 3.6 fold

Shk phage (sea anemone K+ channel toxin ShK on phage) (peptide)
% phages, OUTPUT [4]: 20%

fasciculin-2 phage (from UniProt P0C1Z0 1-61) (peptide)
Output (% Ligands) [2]: 0%

mokatoxin-1 (MK-1), synthesized peptide
approximate IC50 (nM) of channel block [5]: > 1000 nM | decrease in IL-2 secretion by CD3/CD28-activated human T cells at 10 nM [6]: 50% | decrease in TNF-α secretion by CD3/CD28-activated human T cells at 10 nM [6]: 50% | lowest concentration inhibiting cytokine secretion by T cells [6]: 1 nM | approximate IC50 (nM) of channel block [7]: > 1000 nM | approximate IC50 (nM) of channel block [8]: 680 nM | approximate IC50 (nM) of channel block [1]: 3 nM | Ki [9]: 1 nM

mokatoxin-1 (MK-1), synthesized peptide (peptide; other documents disagree on this pair)
koff [10]: 0.16 s⁻¹ | kon [10]: 260000 M⁻¹ s⁻¹ | Ki [11]: 620 nM

mokatoxin-1-phage (peptide)
% of the phage isolated after two rounds of selection [12]: 60% | % of the eluted phage after two rounds of panning [13]: 16.6% | % of phages after the 2nd panning [14]: 15%
